{
  "source": "patent US10202469B2",
  "about": "“Sugar chain-attached linker, compound containing sugar chain-attached linker and physiologically active substance or salt thereof, and method for producing same” (Glytech, Inc., priority 2012, dated 2019)",
  "key": {"[1]": {"test_system": "cytotoxic T lymphocyte (CTL)", "conditions": "cited from earlier work"}, "[2]": {"test": "Solubility measurement in water (absorbance of supernatant at 280 nm)", "conditions": "25° C.", "experimental": "(§1) After the centrifugation, the absorbance of the supernatant portion at 280 nm was measured in the microtube. From the obtained value, the concentration was calculated to determine solubility."}, "[3]": {"test": "Tracing of hydrolysis behavior in aqueous solution by HPLC (hydrolysis half-life)", "protocol": "[…] A given amount of each solution was injected to HPLC at appropriate time intervals to trace the hydrolysis reaction. The relative starting material concentration was determined from an HPLC peak area corresponding to the starting material. The relative concentration of the starting material was plotted against incubation time. […] Also, the terminal half-life t1/2 of the starting material was calculated according to the expression t1/2=ln(2)/k (wherein k represents the slope of the linear plot)."}, "[4]": {"test": "Solubility measurement in 0.1% aqueous acetic acid (AcOH) solution", "conditions": "aqueous acetic acid solution (0.1% AcOH)", "experimental": "as §1"}, "[5]": {"conditions": "Solubility (μM)", "experimental": "as §1"}, "[6]": {"conditions": "Solubility (μM)", "remark": "listed apart in the source", "experimental": "as §1"}, "[7]": {"conditions": "buffer, pH 4, Hydrolysis half-life, Acetate buffer solution (pH 4.0), 25° C."}, "[8]": {"conditions": "buffer, pH 4, Hydrolysis half-life, Acetate buffer solution (pH 4.0), 37° C."}, "[9]": {"conditions": "buffer, pH 7.4, Hydrolysis half-life, PBS (pH 7.4), 25° C."}, "[10]": {"conditions": "buffer, pH 7.4, Hydrolysis half-life, PBS (pH 7.4), 37° C."}},
  "note": "Like-named read-outs stand apart in the source and are kept apart here.",
  "data": [
    {"smiles": "CC(C)C[C@H](NC(=O)[C@H](CC(C)C)NC(=O)[C@H](C)NC(=O)[C@H](CC(C)C)NC(=O)[C@H](CC(C)C)NC(=O)[C@H](CC(C)C)NC(=O)CNC(=O)[C@H](Cc1c[nH]c2ccccc12)NC(=O)[C@@H](N)CCCNC(=N)N)C(=O)O", "note": "[compound 10]", "values": [
      {"measurement": "Ability to induce cytotoxic T lymphocyte (CTL)", "setting": "[1]", "result": "exhibits the ability to induce cytotoxic T lymphocyte (CTL)"}
    ]},
    {"smiles": "CC(=O)N[C@@H]1[C@@H](O)[C@H](O[C@@H]2O[C@H](CO)[C@@H](O[C@@H]3O[C@H](CO[C@H]4O[C@H](CO)[C@@H](O)[C@H](O)[C@@H]4O[C@@H]4O[C@H](CO)[C@@H](O[C@@H]5O[C@H](CO)[C@H](O)[C@H](O)[C@H]5O)[C@H](O)[C@H]4NC(C)=O)[C@@H](O)[C@H](O[C@H]4O[C@H](CO)[C@@H](O)[C@H](O)[C@@H]4O[C@@H]4O[C@H](CO)[C@@H](O[C@@H]5O[C@H](CO)[C@H](O)[C@H](O)[C@H]5O)[C@H](O)[C@H]4NC(C)=O)[C@@H]3O)[C@H](O)[C@H]2NC(C)=O)[C@@H](CO)O[C@H]1NC(=O)C[C@H](NC(=O)Cc1ccc(SC(=O)[C@H](CC(C)C)NC(=O)[C@H](CC(C)C)NC(=O)[C@H](C)NC(=O)[C@H](CC(C)C)NC(=O)[C@H](CC(C)C)NC(=O)[C@H](CC(C)C)NC(=O)CNC(=O)[C@H](Cc2c[nH]c3ccccc23)NC(=O)[C@@H](N)CCCNC(=N)N)cc1)C(=O)NCC(N)=O", "note": "[compound 21]", "values": [
      {"measurement": "solubility at 15 min", "setting": "[2]; water, Solubility (mg/mL)", "result": "≥ 76.7", "unit": "mg/mL"},
      {"measurement": "solubility at 15 min", "setting": "[2]; water, Solubility (μM)", "result": "> 26000", "unit": "µM"},
      {"measurement": "half-life", "setting": "[3]; PBS, pH 7.4, Hydrolysis half-life, PBS (pH 7.4), 4° C.", "result": 66, "unit": "h"},
      {"measurement": "half-life", "setting": "[3]; PBS, pH 7.4, Hydrolysis half-life, PBS (pH 7.4), 25° C.", "result": 25, "unit": "h"},
      {"measurement": "half-life", "setting": "[3]; PBS, pH 7.4, Hydrolysis half-life, PBS (pH 7.4), 37° C.", "result": 4, "unit": "h"},
      {"measurement": "half-life", "setting": "[3]; acetate buffer solution, pH 4, Hydrolysis half-life, Acetate buffer solution (pH 4.0), 25° C.", "result": 456, "unit": "h"},
      {"measurement": "half-life", "setting": "[3]; acetate buffer solution, pH 4, Hydrolysis half-life, Acetate buffer solution (pH 4.0), 37° C.", "result": 240, "unit": "h"},
      {"measurement": "Hydrolysis product found by HPLC analysis", "setting": "[3]; after hydrolysis test in buffer solution", "result": "production of the unmodified HER2(8-16) peptide (compound 10) was confirmed"}
    ]},
    {"smiles": "CC(=O)N[C@@H]1[C@@H](O)[C@H](O[C@@H]2O[C@H](CO)[C@@H](O[C@@H]3O[C@H](CO[C@H]4O[C@H](CO)[C@@H](O)[C@H](O)[C@@H]4O[C@@H]4O[C@H](CO)[C@@H](O[C@@H]5O[C@H](CO)[C@H](O)[C@H](O)[C@H]5O)[C@H](O)[C@H]4NC(C)=O)[C@@H](O)[C@H](O[C@H]4O[C@H](CO)[C@@H](O)[C@H](O)[C@@H]4O[C@@H]4O[C@H](CO)[C@@H](O[C@@H]5O[C@H](CO)[C@H](O)[C@H](O)[C@H]5O)[C@H](O)[C@H]4NC(C)=O)[C@@H]3O)[C@H](O)[C@H]2NC(C)=O)[C@@H](CO)O[C@H]1NC(=O)CSCCSC(=O)[C@H](CC(C)C)NC(=O)[C@H](CC(C)C)NC(=O)[C@H](C)NC(=O)[C@H](CC(C)C)NC(=O)[C@H](CC(C)C)NC(=O)[C@H](CC(C)C)NC(=O)CNC(=O)[C@H](Cc1c[nH]c2ccccc12)NC(=O)[C@@H](N)CCCNC(=N)N", "note": "[compound 20]", "values": [
      {"measurement": "solubility at 15 min", "setting": "[2]; Solubility (mg/mL)", "result": "≥ 77.4", "unit": "mg/mL"},
      {"measurement": "solubility at 15 min", "setting": "[2]; Solubility (μM)", "result": "> 28000", "unit": "µM"},
      {"measurement": "half-life", "setting": "[3]; [7]", "result": "> 720", "unit": "h"},
      {"measurement": "half-life", "setting": "[3]; [8]", "result": 576, "unit": "h"},
      {"measurement": "half-life", "setting": "[3]; buffer, pH 7.4, Hydrolysis half-life, PBS (pH 7.4), 4° C.", "result": 230, "unit": "h"},
      {"measurement": "half-life", "setting": "[3]; [9]", "result": 120, "unit": "h"},
      {"measurement": "half-life", "setting": "[3]; [10]", "result": 32, "unit": "h"}
    ]},
    {"smiles": "CC(=O)N[C@@H]1[C@@H](O)[C@H](O[C@@H]2O[C@H](CO)[C@@H](O[C@@H]3O[C@H](CO[C@H]4O[C@H](CO)[C@@H](O)[C@H](O)[C@@H]4O[C@@H]4O[C@H](CO)[C@@H](O[C@@H]5O[C@H](CO[C@]6(C(=O)O)C[C@H](O)[C@@H](NC(C)=O)[C@H]([C@H](O)[C@H](O)CO)O6)[C@H](O)[C@H](O)[C@H]5O)[C@H](O)[C@H]4NC(C)=O)[C@@H](O)[C@H](O[C@H]4O[C@H](CO)[C@@H](O)[C@H](O)[C@@H]4O[C@@H]4O[C@H](CO)[C@@H](O[C@@H]5O[C@H](CO[C@]6(C(=O)O)C[C@H](O)[C@@H](NC(C)=O)[C@H]([C@H](O)[C@H](O)CO)O6)[C@H](O)[C@H](O)[C@H]5O)[C@H](O)[C@H]4NC(C)=O)[C@@H]3O)[C@H](O)[C@H]2NC(C)=O)[C@@H](CO)O[C@H]1NC(=O)CSC[C@H](NC(=O)c1ccc(COC(=O)[C@H](CC(C)C)NC(=O)[C@H](CC(C)C)NC(=O)[C@H](C)NC(=O)[C@H](CC(C)C)NC(=O)[C@H](CC(C)C)NC(=O)[C@H](CC(C)C)NC(=O)CNC(=O)[C@H](Cc2c[nH]c3ccccc23)NC(=O)[C@@H](N)CCCNC(=N)N)cc1)C(N)=O", "note": "[compound 8]", "values": [
      {"measurement": "solubility at 15 min", "setting": "[4]; Solubility (mg/mL)", "result": "≥ 104", "unit": "mg/mL"},
      {"measurement": "solubility at 15 min", "setting": "[4]; Solubility (μM)", "result": "> 34000", "unit": "µM"},
      {"measurement": "solubility at 15 min", "setting": "[2]; Solubility (mg/mL)", "result": "≥ 121", "unit": "mg/mL"},
      {"measurement": "solubility at 15 min", "setting": "[2]; Solubility (μM)", "result": "> 47000", "unit": "µM"},
      {"measurement": "half-life", "setting": "[3]; [7]", "result": "> 720", "unit": "h"},
      {"measurement": "half-life", "setting": "[3]; [8]", "result": "> 720", "unit": "h"},
      {"measurement": "half-life", "setting": "[3]; [9]", "result": 121, "unit": "h"},
      {"measurement": "half-life", "setting": "[3]; [10]", "result": 106, "unit": "h"}
    ]},
    {"smiles": "CC(=O)N[C@@H]1[C@@H](O)[C@H](O[C@@H]2O[C@H](CO)[C@@H](O[C@@H]3O[C@H](CO[C@H]4O[C@H](CO)[C@@H](O)[C@H](O)[C@@H]4O[C@@H]4O[C@H](CO)[C@@H](O[C@@H]5O[C@H](CO)[C@H](O)[C@H](O)[C@H]5O)[C@H](O)[C@H]4NC(C)=O)[C@@H](O)[C@H](O[C@H]4O[C@H](CO)[C@@H](O)[C@H](O)[C@@H]4O[C@@H]4O[C@H](CO)[C@@H](O[C@@H]5O[C@H](CO)[C@H](O)[C@H](O)[C@H]5O)[C@H](O)[C@H]4NC(C)=O)[C@@H]3O)[C@H](O)[C@H]2NC(C)=O)[C@@H](CO)O[C@H]1NC(=O)CSCC(NC(=O)c1ccc(COC(=O)[C@H](CC(C)C)NC(=O)[C@H](CC(C)C)NC(=O)[C@H](C)NC(=O)[C@H](CC(C)C)NC(=O)[C@H](CC(C)C)NC(=O)[C@H](CC(C)C)NC(=O)CNC(=O)[C@H](Cc2c[nH]c3ccccc23)NC(=O)[C@@H](N)CCCNC(=N)N)cc1)C(N)=O", "note": "(stereo partly drawn) [compound 1]", "values": [
      {"measurement": "solubility at 15 min", "setting": "[5]", "result": "> 37000", "unit": "µM"},
      {"measurement": "solubility at 15 min", "setting": "[6]", "result": "> 41000", "unit": "µM"},
      {"measurement": "Hydrolysis half-life", "setting": "[3]; buffer, pH 4", "result": ">720", "unit": "h"},
      {"measurement": "half-life", "setting": "[3]; buffer, pH 4, Hydrolysis half-life", "result": "> 720", "unit": "h"},
      {"measurement": "Hydrolysis half-life", "setting": "[3]; buffer, pH 7.4", "result": 146, "unit": "h"},
      {"measurement": "half-life", "setting": "[3]; buffer, pH 7.4, Hydrolysis half-life", "result": 78, "unit": "h"}
    ]}
  ]
}
